Assay results from publication PMC12886386.

Biological target: His10-pA-Tn5 (His10-tagged protein A-Tn5 transposase fusion) (not stated | Escherichia coli)
Experiment: SEC; HiLoad 16/600 Superdex 200 pg after Ni-NTA; buffer C: 50 mM Tris-HCl pH 7.5, 800 mM NaCl, 0.2 mM EDTA, 2 mM DTT, 10% (v/v) glycerol; fractions checked by SDS-PAGE and 260 nm/280 nm ratio

Substance “His10-pA-Tn5 (His10-tagged protein A-Tn5 transposase fusion) (enzyme)” has a stoichiometry N of 2.
